# Test results as given in paper PMC1764712, “Recruitment and Activation of RSK2 by HIV-1 Tat” (PLoS ONE, 2007).
# B1: GST-Tat 1–86 (natural protein)
# chain: MEPVDPRLEPWKHPGSQPKTACTNCYCKKCCFHCQVCFITKALGISYGRKKRRQRRRAHQNSQTHQASLSKQPTSQPRGDPTGPKE
# notes: HIV-1 Tat amino acids 1-86; also called GST-Tat (amino acids 1–86); recombinant Tat (amino acids 1–86) fused to the C-terminus of GST; source: E. coli BL21, purified (glutathione-sepharose); not shown: GST, N-terminal, kept
# What was measured:
# [1] = biological target: Endogenous RSK2 of Cos7 cells (African green monkey (endogenous in Cos7))
# [2] = biological target: T1, Full-length human recombinant RSK2 isolated from insect cells (human, UniProt P51812 1-740); experiment: pull-down; GST proteins immobilised on glutathione-sepharose, incubated with 200 ng human recombinant RSK2; binding buffer 20 mM Hepes pH 7.9, 1% Triton, 0.5% NP-40, 200 mM KCl; washes with 1 M KCl; western blot with α-RSK2; settings: both partners purified
# T1 construct: Human ribosomal S6 protein kinase 2 (RSK2), full length; also called full-length recombinant RSK2; source: bought: Upstate Biotechnology (isolated from insect cells)
# T1 sequence (P51812 whole entry): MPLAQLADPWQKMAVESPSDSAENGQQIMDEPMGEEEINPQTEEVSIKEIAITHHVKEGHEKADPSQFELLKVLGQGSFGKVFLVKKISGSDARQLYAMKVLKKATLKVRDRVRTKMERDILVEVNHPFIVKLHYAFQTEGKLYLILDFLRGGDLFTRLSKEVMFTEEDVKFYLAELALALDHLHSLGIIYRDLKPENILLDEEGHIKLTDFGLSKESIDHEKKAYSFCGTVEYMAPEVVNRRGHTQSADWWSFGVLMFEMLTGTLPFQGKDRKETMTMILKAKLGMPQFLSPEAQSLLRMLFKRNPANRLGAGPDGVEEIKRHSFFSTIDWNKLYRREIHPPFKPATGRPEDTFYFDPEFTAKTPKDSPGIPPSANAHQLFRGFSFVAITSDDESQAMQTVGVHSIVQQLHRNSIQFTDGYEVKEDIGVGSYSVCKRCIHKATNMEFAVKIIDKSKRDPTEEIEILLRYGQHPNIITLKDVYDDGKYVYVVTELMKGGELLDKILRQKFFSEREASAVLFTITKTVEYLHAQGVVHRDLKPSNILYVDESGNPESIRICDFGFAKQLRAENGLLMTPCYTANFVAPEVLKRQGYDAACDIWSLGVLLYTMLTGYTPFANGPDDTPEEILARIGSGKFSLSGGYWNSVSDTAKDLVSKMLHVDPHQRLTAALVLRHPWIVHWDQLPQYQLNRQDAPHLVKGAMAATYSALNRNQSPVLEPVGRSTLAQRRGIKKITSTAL
Molecule,S6 peptide phosphorylation assay of endogenous RSK2 immunoprecipitated from Cos7 cells transfected with Tat [1] [fold],binding result [2]
Full-length Tat (101 amino acids) bearing a C-terminal FLAG tag (natural protein),3,
B1,,binds
